In the supplement of paper PMC10065799, “High-throughput profiling of sequence recognition by tyrosine kinases and SH2 domains using bacterial peptide display” (eLife, 2023):

target: FGFR3 (UniProt P22607); assay: phosphorylation enrichment, bacterial display (enrichment ratio); higher = better substrate or ligand; peptides without Tyr show the background
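Note: 11-residue human phosphosite peptides and single-mutation variants displayed on the E. coli surface, counted by deep sequencing, each peptide's frequency after selection divided by its frequency in the unselected input library; frequency after pTyr selection over input frequency; kinase dosed for 20-30% of maximal phosphorylation in three min.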

Chain of FGFR3 (P22607 whole entry, looked up): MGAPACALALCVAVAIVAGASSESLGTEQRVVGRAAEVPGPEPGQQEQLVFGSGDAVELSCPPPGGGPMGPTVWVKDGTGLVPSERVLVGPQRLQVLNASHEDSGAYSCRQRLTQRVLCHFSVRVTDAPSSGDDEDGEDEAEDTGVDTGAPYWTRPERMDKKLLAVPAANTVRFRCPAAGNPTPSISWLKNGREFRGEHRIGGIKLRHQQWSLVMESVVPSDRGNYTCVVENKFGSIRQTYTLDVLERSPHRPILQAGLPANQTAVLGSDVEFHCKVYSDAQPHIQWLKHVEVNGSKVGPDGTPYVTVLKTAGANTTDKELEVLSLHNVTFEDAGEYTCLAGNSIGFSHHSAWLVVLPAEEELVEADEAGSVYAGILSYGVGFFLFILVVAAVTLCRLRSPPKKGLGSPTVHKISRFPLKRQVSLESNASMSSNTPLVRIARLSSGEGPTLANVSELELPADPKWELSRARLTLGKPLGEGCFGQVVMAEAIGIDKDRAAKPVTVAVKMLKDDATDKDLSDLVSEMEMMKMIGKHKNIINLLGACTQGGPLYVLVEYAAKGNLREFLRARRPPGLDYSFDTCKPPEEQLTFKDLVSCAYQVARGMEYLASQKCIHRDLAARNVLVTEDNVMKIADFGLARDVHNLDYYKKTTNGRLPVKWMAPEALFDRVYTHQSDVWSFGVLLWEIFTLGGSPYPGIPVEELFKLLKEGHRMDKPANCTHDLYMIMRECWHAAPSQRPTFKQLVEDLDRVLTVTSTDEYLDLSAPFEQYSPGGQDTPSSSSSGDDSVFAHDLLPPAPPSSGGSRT

In order of falling phosphorylation enrichment:
1. HKANEYFPVVI [ADAMTS18_Y764_L769I_YF]  5.96
2. PADQAYSWYQH [NDST1_Y711_R709Q]  3.15
3. PLYSKYWPNHI [GREB1L_Y1560_R1558S]  3.06
4. VPLLEYFWDIF [CDAN1_Y712_R714W_YF]  2.73
5. LLQEWYMIISR [HUWE1_Y4066_R4063Q]  2.45
6. RAEAQYLLVSN [LRIG1_Y1054]  1.78
7. MGSFNYLGFAW [SPTLC2_Y178_R183W_YF]  1.03
8. TQFWLYFAGNL [SLC25A5_Y112]  1
9. CPYNLYAEQFS [HGD_Y40_L44F]  0.973
10. YRQLQYCPSVE [CTNND2_Y508]  0.928
11. EPVSDYINADI [PTPN11_Y304_N308D]  0.908
12. LAGRYYALRSM [CKB_Y174_K177R]  0.763
13. TVLWLYTGTRP [UGT1A1_Y337_R336L]  0.742
14. REGAKYVSHDA [ASS1_Y113_G117D]  0.739
15. CGQDPYIRELG [UROS_Y19]  0.707
16. QDLTDYLMKIL [ACTA2_Y190_R185Q]  0.698
17. CTTIHYNFLCN [TP53_Y234_M237L_YF]  0.674
18. RRVEPYGENFN [APOA4_Y310]  0.655
19. DKEKWYPLGTS [PIK3C2G_Y1438_N1442T]  0.642
20. IMWDSYTTNKV [GNB3_Y85_V81M]  0.64
21. FRPPFYHRNCM [HGD_Y334_YF]  0.605
22. ANSSFHSTRSA [NUMA1_Y1836_Y1836H]  0.599
23. AHADEYGAEAL [HBA1_Y25_G23D]  0.564
24. RKGGSYTQAAS [HLA-A_Y344]  0.563
25. NFRTIYVNANE [KCNH2_Y475_T474I]  0.529
26. VTRDEYPSNPM [CEMIP2_Y1015_I1010V]  0.491
27. VKGGAYNPVTV [MCCC2_Y145_Y146N]  0.469
28. IGRHAYGDQFR [IDH1_Y135_YF]  0.383
29. EQKKFYNAVKK [SCN5A_Y1495_M1498V_YF]  0.35

system: Fer (mouse); assay: as above

In order of falling phosphorylation enrichment:
1. PADQAYSWYQH [NDST1_Y711_R709Q]  20.6
2. PLYSKYWPNHI [GREB1L_Y1560_R1558S]  12.3
3. CPYNLYAEQFS [HGD_Y40_L44F]  2.09
4. HKANEYFPVVI [ADAMTS18_Y764_L769I_YF]  0.874
5. LLQEWYMIISR [HUWE1_Y4066_R4063Q]  0.821
6. REGAKYVSHDA [ASS1_Y113_G117D]  0.767
7. RKGGSYTQAAS [HLA-A_Y344]  0.699
8. YRQLQYCPSVE [CTNND2_Y508]  0.637
9. EPVSDYINADI [PTPN11_Y304_N308D]  0.614
10. MGSFNYLGFAW [SPTLC2_Y178_R183W_YF]  0.559
11. QDLTDYLMKIL [ACTA2_Y190_R185Q]  0.558
12. CTTIHYNFLCN [TP53_Y234_M237L_YF]  0.554
13. DKEKWYPLGTS [PIK3C2G_Y1438_N1442T]  0.55
14. RRVEPYGENFN [APOA4_Y310]  0.542
15. CGQDPYIRELG [UROS_Y19]  0.534
16. TVLWLYTGTRP [UGT1A1_Y337_R336L]  0.527
17. VKGGAYNPVTV [MCCC2_Y145_Y146N]  0.526
18. LAGRYYALRSM [CKB_Y174_K177R]  0.5
19. TQFWLYFAGNL [SLC25A5_Y112]  0.498
20. FRPPFYHRNCM [HGD_Y334_YF]  0.489
21. VPLLEYFWDIF [CDAN1_Y712_R714W_YF]  0.439
22. RAEAQYLLVSN [LRIG1_Y1054]  0.43
23. NFRTIYVNANE [KCNH2_Y475_T474I]  0.428
24. ANSSFHSTRSA [NUMA1_Y1836_Y1836H]  0.425
25. AHADEYGAEAL [HBA1_Y25_G23D]  0.412
26. EQKKFYNAVKK [SCN5A_Y1495_M1498V_YF]  0.402
27. IMWDSYTTNKV [GNB3_Y85_V81M]  0.392
28. VTRDEYPSNPM [CEMIP2_Y1015_I1010V]  0.339
29. IGRHAYGDQFR [IDH1_Y135_YF]  0.339

target: Fes (UniProt P07332); assay: as above
Sequence (P07332 whole entry, looked up): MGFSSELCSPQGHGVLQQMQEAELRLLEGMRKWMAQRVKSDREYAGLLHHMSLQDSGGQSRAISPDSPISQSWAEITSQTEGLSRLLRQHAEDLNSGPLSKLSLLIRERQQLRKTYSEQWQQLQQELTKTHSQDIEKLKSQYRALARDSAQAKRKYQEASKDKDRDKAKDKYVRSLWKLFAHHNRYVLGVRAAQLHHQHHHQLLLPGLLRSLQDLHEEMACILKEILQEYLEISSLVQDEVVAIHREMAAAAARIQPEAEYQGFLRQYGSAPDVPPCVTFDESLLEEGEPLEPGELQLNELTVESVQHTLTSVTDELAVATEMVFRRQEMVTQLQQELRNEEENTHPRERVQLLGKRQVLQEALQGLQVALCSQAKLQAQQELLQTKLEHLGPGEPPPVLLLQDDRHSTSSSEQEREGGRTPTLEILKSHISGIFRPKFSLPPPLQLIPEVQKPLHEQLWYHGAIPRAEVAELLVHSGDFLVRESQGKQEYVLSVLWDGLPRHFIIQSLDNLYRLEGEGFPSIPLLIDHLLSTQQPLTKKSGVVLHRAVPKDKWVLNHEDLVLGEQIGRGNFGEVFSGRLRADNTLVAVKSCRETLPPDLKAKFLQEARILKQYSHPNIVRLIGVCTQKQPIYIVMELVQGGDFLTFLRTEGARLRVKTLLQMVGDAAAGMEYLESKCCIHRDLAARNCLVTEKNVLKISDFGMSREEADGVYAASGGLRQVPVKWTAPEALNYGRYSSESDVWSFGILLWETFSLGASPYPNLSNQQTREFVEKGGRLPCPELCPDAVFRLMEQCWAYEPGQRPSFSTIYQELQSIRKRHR

In order of falling phosphorylation enrichment:
1. LLQEWYMIISR [HUWE1_Y4066_R4063Q]  2.39
2. TQFWLYFAGNL [SLC25A5_Y112]  1.57
3. PADQAYSWYQH [NDST1_Y711_R709Q]  1.57
4. QDLTDYLMKIL [ACTA2_Y190_R185Q]  1.55
5. EPVSDYINADI [PTPN11_Y304_N308D]  1.33
6. YRQLQYCPSVE [CTNND2_Y508]  1.31
7. TVLWLYTGTRP [UGT1A1_Y337_R336L]  1.27
8. CGQDPYIRELG [UROS_Y19]  1.27
9. PLYSKYWPNHI [GREB1L_Y1560_R1558S]  1.27
10. RRVEPYGENFN [APOA4_Y310]  1.2
11. VPLLEYFWDIF [CDAN1_Y712_R714W_YF]  1.16
12. CPYNLYAEQFS [HGD_Y40_L44F]  1.16
13. MGSFNYLGFAW [SPTLC2_Y178_R183W_YF]  1.16
14. AHADEYGAEAL [HBA1_Y25_G23D]  1.1
15. FRPPFYHRNCM [HGD_Y334_YF]  1.04
16. ANSSFHSTRSA [NUMA1_Y1836_Y1836H]  1.04
17. REGAKYVSHDA [ASS1_Y113_G117D]  0.988
18. HKANEYFPVVI [ADAMTS18_Y764_L769I_YF]  0.973
19. CTTIHYNFLCN [TP53_Y234_M237L_YF]  0.941
20. DKEKWYPLGTS [PIK3C2G_Y1438_N1442T]  0.931
21. RKGGSYTQAAS [HLA-A_Y344]  0.885
22. IMWDSYTTNKV [GNB3_Y85_V81M]  0.885
23. LAGRYYALRSM [CKB_Y174_K177R]  0.79
24. NFRTIYVNANE [KCNH2_Y475_T474I]  0.775
25. RAEAQYLLVSN [LRIG1_Y1054]  0.761
26. VTRDEYPSNPM [CEMIP2_Y1015_I1010V]  0.751
27. VKGGAYNPVTV [MCCC2_Y145_Y146N]  0.644
28. EQKKFYNAVKK [SCN5A_Y1495_M1498V_YF]  0.57
29. IGRHAYGDQFR [IDH1_Y135_YF]  0.507

target: Fyn (UniProt P06241); assay: as above
Sequence (P06241 whole entry, looked up): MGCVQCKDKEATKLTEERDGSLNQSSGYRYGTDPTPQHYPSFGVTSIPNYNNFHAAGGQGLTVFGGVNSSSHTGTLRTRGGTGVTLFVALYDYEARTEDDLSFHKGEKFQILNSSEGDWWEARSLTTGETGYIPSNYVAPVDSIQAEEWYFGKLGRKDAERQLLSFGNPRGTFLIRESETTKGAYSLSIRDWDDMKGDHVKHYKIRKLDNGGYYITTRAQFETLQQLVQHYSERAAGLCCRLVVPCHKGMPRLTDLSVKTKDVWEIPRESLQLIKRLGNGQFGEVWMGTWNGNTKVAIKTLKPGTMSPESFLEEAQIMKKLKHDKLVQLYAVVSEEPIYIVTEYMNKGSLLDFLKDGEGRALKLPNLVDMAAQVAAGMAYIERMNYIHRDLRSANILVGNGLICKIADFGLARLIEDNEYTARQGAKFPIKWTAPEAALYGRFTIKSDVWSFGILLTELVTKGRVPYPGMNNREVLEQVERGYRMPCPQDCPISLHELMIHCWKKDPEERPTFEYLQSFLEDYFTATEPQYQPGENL

In order of rising phosphorylation enrichment:
1. IMWDSYTTNKV [GNB3_Y85_V81M]  0.33
2. VTRDEYPSNPM [CEMIP2_Y1015_I1010V]  0.356
3. TQFWLYFAGNL [SLC25A5_Y112]  0.376
4. IGRHAYGDQFR [IDH1_Y135_YF]  0.381
5. EQKKFYNAVKK [SCN5A_Y1495_M1498V_YF]  0.392
6. NFRTIYVNANE [KCNH2_Y475_T474I]  0.423
7. VPLLEYFWDIF [CDAN1_Y712_R714W_YF]  0.449
8. VKGGAYNPVTV [MCCC2_Y145_Y146N]  0.456
9. AHADEYGAEAL [HBA1_Y25_G23D]  0.458
10. RKGGSYTQAAS [HLA-A_Y344]  0.465
11. RAEAQYLLVSN [LRIG1_Y1054]  0.466
12. FRPPFYHRNCM [HGD_Y334_YF]  0.472
13. RRVEPYGENFN [APOA4_Y310]  0.487
14. DKEKWYPLGTS [PIK3C2G_Y1438_N1442T]  0.505
15. LAGRYYALRSM [CKB_Y174_K177R]  0.524
16. CTTIHYNFLCN [TP53_Y234_M237L_YF]  0.531
17. CGQDPYIRELG [UROS_Y19]  0.535
18. YRQLQYCPSVE [CTNND2_Y508]  0.538
19. MGSFNYLGFAW [SPTLC2_Y178_R183W_YF]  0.547
20. ANSSFHSTRSA [NUMA1_Y1836_Y1836H]  0.555
21. EPVSDYINADI [PTPN11_Y304_N308D]  0.581
22. HKANEYFPVVI [ADAMTS18_Y764_L769I_YF]  0.594
23. REGAKYVSHDA [ASS1_Y113_G117D]  0.655
24. QDLTDYLMKIL [ACTA2_Y190_R185Q]  0.657
25. TVLWLYTGTRP [UGT1A1_Y337_R336L]  0.68
26. LLQEWYMIISR [HUWE1_Y4066_R4063Q]  0.766
27. PADQAYSWYQH [NDST1_Y711_R709Q]  1.17
28. CPYNLYAEQFS [HGD_Y40_L44F]  3.86
29. PLYSKYWPNHI [GREB1L_Y1560_R1558S]  19.9
